Target: the molecule itself
Assay: mass photometry

B1: full-length, wild-type Cdc13 (natural protein, S. cerevisiae, UniProt P32797 1-924, looked up)
chain: MDTLEEPECPPHKNRIFVSSSKDFEGYPSKAIVPVQFVALLTSIHLTETKCLLGFSNFERRGDQSQEDQYLIKLKFKDRGSERLARITISLLCQYFDIELPDLDSDSGASPTVILRDIHLERLCFSSCKALYVSKHGNYTLFLEDIKPLDLVSVISTISTKSTNSSKHSSSELISECDLNNSLVDIFNNLIEMNRDEKNRFKFVKLIHYDIELKKFVQDQQKVLSQKSKAAAINPFFVPNRLGIPYIESQNEFNSQLMTLNVDEPTTDISNMGEEMHDSADPIEDSDSSTTSSTGKYFSSKSYIQSQTPERKTSVPNNWHDDDSGSKRKRKLSFHSPNASSIRKAISYEQLSLASVGSVERLEGKIVGMNPPQFASINEFKYCTLKLYFTQLLPNVPDKVLVPGVNCIEIVIPTRERICELFGVLNCQSDKISDILLLEKPDRISVEVERILWDNDKTASPGMAVWSLKNISTDTQAQAQVQVPAQSSASIDPSRTRMSKMARKDPTIEFCQLGLDTFETKYITMFGMLVSCSFDKPAFISFVFSDFTKNDIVQNYLYDRYLIDYENKLELNEGFKAIMYKNQFETFDSKLRKIFNNGLRDLQNGRDENLSQYGIVCKMNIKVKMYNGKLNAIVRECEPVPHSQISSIASPSQCEHLRLFYQRAFKRIGESAISRYFEEYRRFFPIHRNGSHLAKLRFDEVKHEPKKSPTTPALAEHIPDLNADVSSFDVKFTDISSLLDSSARLPRPQQTHKSNTLYSCEGRIIAIEYHASDLCFHITNELPLLQTRGLAPERVLQLHIITSKNFAYFFNRSSAYLQRQPLEEKYTQLAQFLGHSFKFNITSSLTLFPDTTVALQIWCPIECTFRELQQQLAHPKVAAAPDSGSLDCAINATVNPLRLLAAQNGVTVKKEEDNDDDAGAVPTS
stoichiometry N: 2

Reference: paper PMC11974935 (bioRxiv, 2025)
